From article PMC4282539

Biological target: NNN-GFPglyc (GnTI CTS region fused to the glycosylation reporter GFPglyc) (Nicotiana tabacum (legend of Figure 1 and methods); the running text says N. benthamiana)
Assay: FRET or BRET; two-photon FRET-FLIM in living N. benthamiana leaf epidermal cells, Golgi bodies, leaves treated with 25 uM latrunculin B; donor NNN-GFPglyc, acceptor CTS-mRFP; a decrease of the donor lifetime by 0.20 ns or 8% taken as interaction

Row | FRET efficiency E | donor lifetime with acceptor (tau DA) | lifetime contrast (delta tau) | Substance
1 | 10.8% | 2.18 ns | 0.26 ns | RNN-mRFP (chimeric CTS region: ST cytoplasmic tail, GnTI transmembrane domain and stem, fused to mRFP) (from UniProt P13721 1-9)
2 | 14.6% | 2.08 ns | 0.36 ns | NNN-mRFP (GnTI CTS region fused to mRFP) (domain or fragment)
